Test results from patent US20050058658A1, “Compositions and methods for immunotherapy of human immunodeficiency virus (HIV)” (priority 2003, published 2005).

Tests used:
[1] = test system: freshly isolated dendritic cells (CD11c+ splenocytes); assay: Dendritic cell (DC) assay: IL-12 release; type: cell-based, BALB/c mice; settings: tested for synergism and inhibition
Description: In a preferred embodiment, dendritic cell (DC) assay is used to follow interleukin-12 (IL-12) release from freshly isolated dendritic cells as an index of DC activation (see section 13). […] Briefly, by way of example but not limitation, a DC assay can be carried out as follows: freshly isolated dendritic cells (CD11c^+ splenocytes, e.g., isolated from the spleens of BALB/c mice within ten hours of assaying the activity) are suspended at a density of 0.5×10^6 cells per mL in cytokine supplemented culture media (GM-CSF, 1.0 ng/ml; IL-4, 1.0 ng/ml; IFNg, 3 ng/ml; anti mouse CD40; 0.5 mg/ml). […] Mouse IL-12 release from the dendritic cells (CD11c^+ splenocytes) is then measured using ELISA.
DCs were isolated from the spleens of male BALB/c mice 8-12 weeks of age (Harlan Bioproducts for Science, Indianapolis, Ind.), using the magnetic assisted cell separation (MACS) system purchased from Miltenyi Biotech. In summary: Spleens were aseptically removed from mice and placed into a petri dish containing 5 mL holding media (DMEM/F12 supplemented with 10% FCS and antibiotics). Each spleen was then injected with ˜0.5 mls collagenase D solution (1 mg/mL in 10 mM Hepes-NaOH, pH 7.4, 150 mM NaCl, 5 mM MgCl2, 1.8 mM CaCl2), placed into 5-10 mL collagenase D, cut into 5-6 pieces and incubated at 37° C. for 45-60 min. Collagenase-digested spleens were then processed with glass slides and passed through a 70 μm nylon mesh cell strainer. After the strainer was flushed with 40 mL culture media, cells were centrifuged (8 min @ 200×G), suspended in 1 mL PBS and subjected to red blood cell lysis by incubating the cell suspension for 5 min at room temperature in 10 mL lysis buffer (155 mM NH4Cl, 10 mM KHCO3, 0.1 mM EDTA), followed by dilution in PBS to 50 mL and centrifugation (8 min @ 200×g). The splenocytes were then suspended in 10 mL MACS buffer (PBS pH 7.2, supplemented with 2 mM EDTA and 0.5% BSA), passed through a 40 μm nylon mesh cell strainer which was flushed with 40 mL MACS buffer. A preliminary cell count was taken at this time, prior to centrifugation (8 min @ 200×G). The splenocytes were suspended at a density of 10^8 cells per 400 μL MACS buffer. Paramagnetic MicroBeads coated with anti-CD11c antibody were mixed with the splenocyte suspension (100 μL per 10^8 cells), incubated at +4° C. for 15 min, washed, suspended in 1.0 mL MACS buffer and passed through a MS+separation column placed within a strong magnetic field. CD11c^+ cells were retained in the column whereas CD11c^− cells were washed off the column as the flow-through cell fraction. CD11c^+ cells were then collected by removing the column out of the magnetic field and flushing the column twice with 1 mL of MACS buffer. CD11c^+ cells were washed once with culture media and suspended at a density of 0.5×10^6 cells per mL in cytokine supplemented culture media {DMEM/F12 supplemented with 10% FCS and gentamicin containing mouse GM-CSF (1 ng/mL), mouse IL-4 (1 ng/mL), mouse IFNγ (3 ng/mL) and anti mouse CD40 (0.5 mg/mL)}.
Mouse IL12 release from CD11c^+ splenocytes was measured using ELISA. Briefly, CD11c+ cell culture supernatants were sampled following an overnight incubation (usually 15-18 hrs). Media samples (100 μL) were added to ELISA plates coated with anti mouse IL12 (p70) capture antibody (R&D #MAB419; 250 ng in 100 μL per well) and incubated either at 37° C. or room temperature for 2 hrs. The ELISA plates were washed extensively with wash buffer after which 100 μL per well of detection antibody/detection reagent (biotinylated anti-mouse IL12; R&D #BAF419 at 50 ng/mL and streptavidin-HRP) was added. The ELISA plates were again incubated for 2 hours, washed and exposed to […] substrate solution (Pierce #34021) for 20 min. The substrate reaction was stopped by adding 100 μL/well 2M H2SO4. ELISA plates were read at 450 nm (corrected at 540 nm) and mIL12(p70) levels were calculated using an intra-ELISA standard curve (range: 2000-31.25 pg/mL).

[2] = test system: Mouse sarcoma 180 cells; type: cell-based; settings: for NK-CMC Activity: wide range of concentrations, in the presence and absence of IL-2 (125 U/ml)
Experimental: In one embodiment, a NK cell assay is used to assess ARP-induced cytotoxic activity of NK-like cells. Briefly, by way of example but not limitation, a NK cell assay can be carried out as follows: large granular lymphocytes (LGLs) are co-cultured with tumor cells at various ratios (effector to target ratio) for four days at 37° C., 5% CO2. […] The culture is terminated at the end of day 4 and vitally stained using a MTT cell viability quantification assay (see Mossman, T. J. Immunol. Methods 1983, 65:55; and Sigma Chemical MTT (M5655) product application note). Culture media is aspirated and the remaining cells are washed and replaced with DMEM/F12 plus FCS, containing MTT. The cells are further incubated for 4-5 hours at 37° C. Absorbance is measured with the aid of a plate reader. Decreased absorbance indicated a decrease in the number of viable cells per well (i.e., cytotoxicity). Absorbance is measured again after the MTT is solubilized by replacement of the medium with 2-propanol containing HCl, which gives a uniform color throughout the well. NK-inducing activity is calculated relative to negative (PBS/BSA) and positive (internal standard) controls.
Spleens (10-15 per experiment) were aseptically removed from male Balb/C mice 6-10 weeks of age. Splenocytes were “squeezed” out of spleens using 2 sterile glass microscope slides. Cells were collected in approximately 10 ml of DMEM/F12 containing 10% fetal calf serum (FCS) and gentamicin (50 μg/ml). Single cell suspensions were generated by passing collected cells through a 70 μm nylon mesh screen. After washing the cell pellet once with PBS (centrifuged at 675×g for 5 min), red blood cells were lysed by brief hypotonic shock (i.e. exposure to sterile distilled, deionized water, followed immediately with appropriate volumes of 10×PBS to return to isotonicity). Remaining cells were centrifuged and resuspended in DMEM/F12+10% FCS and transferred to 75 cm^2 flasks each containing 25 mls DMEM/F12+10% FCS (cells from 5 spleens per flask). The cells were incubated for 60 min. at 37° C. to selectively remove readily adherent cells (mainly fibroblasts and macrophages). After the incubation, the flasks were gently shaken and the non-adherent cells were removed, pelleted by centrifugation, and resuspended in DMEM/F12 (no supplements) (1.0 mL/10^8 cells). A 1.0 mL volume of these cell suspensions were carefully layered onto a 70%/60%/40% (2 mL/4 mL/4 mL) Percoll™ gradients in 15 ml centrifuge tubes and centrifuged for 30 min at 675×G. The cells which sediment at the 40/60 interface represent primarily large granular lymphocytes (LGLs), enriched with NK cells. These cells were carefully removed with a pasteur pipet, centrifuged, washed once with PBS and resuspended in approximately 5 mL DMEM/F12 supplemented with gentamicin (50 μg/mL) and 10% fetal calf serum. Cell counts and appropriate dilutions of LGL cells were made with these cells, as described below. For convenience this LGL cell preparation is interchangeably referred to as NK cells.
Mouse sarcoma 180 cells were seeded into 96 well plates at a density of 5×10^3 cells per well in 100 μl DMEM/F12, supplemented with 10% FCS and gentamicin (50 μg/mL). […] NK cells were added in 100 μL of supplemented DMEM/F12 at designated densities: 0 NK cells/well; 5×10^4 NK cells/well (1:10 target/effector ratio); 1.25×10^5 NK cells/well (1:25 target/effector ratio); 2.5×10^5 NK cells/well (1:50 target/effector ratio); and, 5×10^5 NK cells/well (1:100 target/effector ratio). (Note: routinely, only the 1:50 and 1:100 ratios were used for screening purposes. IL2 was added as a media supplement with final concentration of 125 U/mL.). Co-cultures were incubated for 4 days at 37° C., 5% CO2, and terminated and vitally stained using a MTT cell viability quantification assay (see Mossman, T. J. Immunol. Methods 65:55 (1983); and Sigma Chemical MTT (M5655) product application note). […]

Row | Molecule | DC/mIL12 Release [1] | NK-CMC Activity [2] | Enhancement of NK-CMC compared to BEX ([2]; same conditions as BEX) | Effect on NK-CMC (footnotes of Table 16) [2] | basal NK-CMC activity ([2]; IL2 alone (125 U/ml), highest NK:S180 ratio (100_NK))
1 | IL-6: interleukin | − | − |  |  | 
2 | TGFβ | − | − |  |  | 
3 | TNFα | − |  | relatively weak enhancers |  | 
4 | IL-1β: interleukin (protein, UniProt P10749 118-269, looked up) Interleukin-1 beta: VPIRQLHYRLRDEQQKSLVLSDPYELKALHLNGQNINQQVIFSMSFVQGEPSNDKIPVALGLKGKNLYLSCVMKDGTPTLQLESVDPKQYPKKKMEKRFVFNKIEVKSKVEFESAEFPNWYISTSQAEHKPVFLGNNSGQDIIDFTMESVSS | − | −^3 |  |  | 
5 | IL-10: interleukin (protein, UniProt P18893 19-178, looked up) Interleukin-10: SRGQYSREDNNCTHFPVGQSHMLLELRTAFSQVKTFFQTKDQLDNILLTDSLMQDFKGYLGCQALSEMIQFYLVEVMPQAEKHGPEIKEHLNSLGEKLKTLRMRLRRCHRFLPCENKSKAVEQVKSDFNKLQDQGVYKAMNEFDIFINCIEAYMMIKMKS | inhibitory | − |  |  | 
6 | IL-2: Interleukin 2 (protein, UniProt P04351 21-169, looked up) Interleukin-2: APTSSSTSSSTAEAQQQQQQQQQQQQHLEQLLMDLQELLSRMENYRNLKLPRMLTFKFYLPKQATELKDLQCLEDELGPLRHVLDLTQSKSFQLEDAENFISNIRVTVVKLKGSDNTFECQFDDESATVVDFLRRWIAFCQSIISTSPQ | − |  |  | ^4IL-2 significantly increases NK-CMC only at high concentrations. | 10-15%
